In US20170267762A1 (APOLLOMICS, published 2017) one finds EC50 and IC50 data, which are given here for two molecules.

Test [1] has as its target T1, human PD-1 extracellular domain fused with human Fc tag (hPD-1-hFc) (human).
T1 construct: also called human PD-1-hFc
Put plainly: ELISA on coated PD1-hFc. The protocol: (§1) ELISA binding analysis was conducted based on human PD-1-hFc Protein. 96-well plates (Costar, Cat No:9018) were coated with 100 μL of 2 μg/ml PD1-hFc (CrownBio) in coating buffer (PBS, Hyclone, Cat No:SH30256.01B) overnight at 4° C. The wells were aspirated and non-specific binding sites were blocked by adding 200 μL of blocking buffer with 1% (w/v) of bovine serum albumin (BSA, Roche, Cat No: 738328) and incubating for 1 hour at 37° C. After the plates are washed three times with wash buffer (PBS with 0.05%(v/v) Tween20 (Sigma, Cat No:P1379), 100 μL/well of a suitable dilutions of hybridoma supernatant in blocking buffer were added and incubated at room temperature for 1 hour. The plates were washed and incubated with 100 μL/well of Goat anti-Mouse IgG (H+L) (Thermo, Cat No: 31432) in blocking buffer for 60 min. After the plates were washed, 100 μL/well of substrate solution (TMB(eBioscience, Cat No:00-4201-56) was added and the plates were incubated for 2min at room temperature. 100 μL/well of stop solution (2N H2SO4) was added to stop the reaction. The colorimetric signals were developed and read at 450 nm using a Auto Plate SpectraMax Plus (Supplier: Molecular Devices; Model: MNR0643; Software: SoftMax Pro v5.4).
(§2) Freestyle 293 cells (200 mL at 10⁶/mL) were transfected with 100 μg of each of the chimeric heavy and light chain expression plasmids and cultured for 6 days. The chimeric antibody in the supernatant was then purified with Protein-G column (GE healthcare).

In test [2] the target is T2, human PD-1 on cells (293T cells transfected with human PD-1) (human, UniProt Q15116 25-288).
T2 construct: whole, on cells; Also used as the target for the functional rows, where PD-1 stands on human T cells
T2 sequence (Q15116 25-288): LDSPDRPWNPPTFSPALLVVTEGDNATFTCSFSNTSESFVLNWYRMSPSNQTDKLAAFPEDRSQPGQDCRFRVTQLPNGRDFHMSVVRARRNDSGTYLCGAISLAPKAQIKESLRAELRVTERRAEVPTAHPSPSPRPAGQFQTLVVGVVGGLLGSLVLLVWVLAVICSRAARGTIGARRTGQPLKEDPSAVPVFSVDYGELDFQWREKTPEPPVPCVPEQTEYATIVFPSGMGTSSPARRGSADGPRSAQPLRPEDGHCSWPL
The test is described as follows: FACS on hPD-1-293T cells. The protocol: (§3) The cells were incubated with the indicated antibody (20 ug/ml with the dilution of ⅕) at 4° C. for 1 h. Cells were washed three times with FACS buffer. A secondary antibody (PE Goat anti-mouse: 1:200; PE mouse anti-human: 1:10) was added to the cells at 100 ul/well, and incubated at 4° C. for 40min. Cells were washed three times with FACS buffer and analyzed by FACS Array.
as §2

Test [3] has as its target T2, human PD-1 on cells (293T cells …). Put plainly: FACS blockage on hPD-1-293T cells, competitor biotin PD-L1. The protocol: Various concentrations of the testing hybridoma antibodies were added to the cell suspension and incubated at 4° C. for 60 minutes in 96 well plates. […] Plates were washed 3 times, and mouse anti-biotin PE antibody (Biolgend, cat# 409004) was added. Flow cytometric analyses were performed using a FACS Array.
as §2

Test [4] has as its target T3, human PD-1 extracellular domain fused with mouse Fc (PD-1-mFc) (human, UniProt Q15116 25-170).
T3 construct: extracellular domain; not used because of the label; also called hPD-1-mFc; human PD-1-mouse Fc fusion protein
The test is described as follows: blockage ELISA, coated PD-1-mFc, competitor PDL-1-mFc-biotin. How it is done: (§4) PD-1-mFc antigen (CrownBio) was suspended in PBS (Hyclone,Cat No:SH30256.01B) buffer (2 ug/ml, 100 ul/ well) and coated on the 96 well plate (costar, Cat No.:9018) 4° C. overnight. Plates were washed 3 times using washing buffer: PBS+0.05% Tween 20(Sigma, Cat No.:P1379). 200 ul of blocking buffer (PBS+1%BSA(Roche, Cat No.:738328)), was added to each well, incubated at 37° C. for 1 hour, and washed 3 times. Various concentrations (suitable dilutions of hybridoma supernatant in PBS) of the anti-PD-1 Abs were added to the wells (100 μl/well) and incubated at 37° C. for 1 hour. […] Secondary antibody (Avidin HRP eBioscience cat No.:E07418-1632, 1:500, 100 ul/well) was added, incubated at 37 ° C. for 0.5 hour, and washed 3 times. TMB (Sigma, Cat No.: T0440, 100 ul/well) was added, and incubated for 3 min at RT. To stop the reaction, 2N H2SO4 (100 ul/well), was added. The colorimetric signals were developed and read at 450 nm using a Auto Plate SpectraMax Plus (Supplier: Molecular Devices; Model: MNR0643; Software: SoftMax Pro v5.4).
as §2
(In an ELISA, binding on a coated surface is turned into a signal by an enzyme label.)

Test [5] has as its target T2, human PD-1 on cells (293T cells …). Put plainly: FACS binding to 293T cells expressing human PD-1, MFI. How it is done:
as §3
Background: In flow cytometry, cells or beads pass a laser one at a time.

Test [6] has as its target T1, human PD-1 extracellular domain fused …. Put plainly: ELISA binding to plate-bound PD-1, OD450 (methods similar to Example 2: plate coated with PD1-hFc). The protocol:
as §1

In test [7] the target is T3, human PD-1 extracellular domain fused …. The test is described as follows: ELISA ligand blockage: biotinylated PD-L1-mFc binding to plate-bound PD-1, OD450 (methods similar to Example 2: PD-1-mFc coated). How it is done:
as §4

T1 sequence (chain, as listed by the source limits assumed): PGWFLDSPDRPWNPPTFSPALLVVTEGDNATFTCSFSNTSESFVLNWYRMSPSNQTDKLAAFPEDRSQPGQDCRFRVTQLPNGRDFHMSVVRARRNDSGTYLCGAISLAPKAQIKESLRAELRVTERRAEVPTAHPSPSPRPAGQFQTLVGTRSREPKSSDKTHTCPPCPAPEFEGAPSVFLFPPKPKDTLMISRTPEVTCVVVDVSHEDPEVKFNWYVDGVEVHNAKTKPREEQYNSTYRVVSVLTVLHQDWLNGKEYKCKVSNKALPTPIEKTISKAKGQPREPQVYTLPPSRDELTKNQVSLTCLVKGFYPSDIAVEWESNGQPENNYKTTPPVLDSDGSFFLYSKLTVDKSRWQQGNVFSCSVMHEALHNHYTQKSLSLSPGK
T3 sequence (Q15116 25-170): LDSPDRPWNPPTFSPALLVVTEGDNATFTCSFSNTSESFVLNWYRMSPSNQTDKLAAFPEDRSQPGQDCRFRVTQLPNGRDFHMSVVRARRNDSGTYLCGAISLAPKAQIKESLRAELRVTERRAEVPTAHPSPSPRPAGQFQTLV

B1: chimeric 7A4-hIgG4 (antibody)
heavy: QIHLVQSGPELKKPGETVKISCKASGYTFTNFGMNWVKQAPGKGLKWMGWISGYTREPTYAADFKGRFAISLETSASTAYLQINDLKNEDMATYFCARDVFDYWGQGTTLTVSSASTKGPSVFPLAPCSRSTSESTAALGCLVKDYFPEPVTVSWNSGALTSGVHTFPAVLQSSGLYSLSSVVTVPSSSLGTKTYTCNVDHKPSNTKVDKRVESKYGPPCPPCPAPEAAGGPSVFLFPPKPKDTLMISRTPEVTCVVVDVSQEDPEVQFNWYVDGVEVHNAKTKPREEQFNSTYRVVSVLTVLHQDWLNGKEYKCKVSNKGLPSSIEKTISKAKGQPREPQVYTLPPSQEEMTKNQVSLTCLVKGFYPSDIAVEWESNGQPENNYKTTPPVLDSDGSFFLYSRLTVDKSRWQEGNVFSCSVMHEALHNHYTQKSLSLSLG
light: DIVLTQSPASLAVSLGQRATISCRASESVDNYGYSFMNWFQQKPGQPPKLLIYRASNLESGIPARFSGSGSRTNFTLTINPVEADDVATYFCQQSNADPTFGGGTNLEIKRTVAAPSVFIFPPSDEQLKSGTASVVCLLNNFYPREAKVQWKVDNALQSGNSQESVTEQDSKDSTYSLSSTLTLSKADYEKHKVYACEVTHQGLSSPVTKSFNRGEC
notes: Full chimeric chains
B1: the EC50 is 0.062 µg/mL in test [1], 0.0916 µg/mL in test [2], 0.137 µg/mL in test [5] and 0.0474 µg/mL in test [6]. Also, the values for the IC50 in test [3], in test [4] and in test [7] were 0.0706 µg/mL, 0.871 µg/mL and 0.845 µg/mL, respectively.

B2: chimeric 13F1-hIgG4 (antibody, V domains shown)
VH: DVQLQESGPGLVKPSQSLSLTCTVTGYSITSDYAWNWIRQFPGNQLEWMAYISYSGYTSYNPSLKSRISITRDTSKNQFFLQLNSVTTEDTATYYCARSLDYDYGTMDYWGQGTSVTVSS
VL: QIVLSQSPAILSASPGEKVTMTCRANSSVSSMHWYQQKPGSSPEPWIYAISNLAFGVPTRFSGSGSGTSYSLTISRVEAEDAATYFCQQWSSRPPTFGGGTKLEIKR
notes: Full chimeric chains; also called 13F1-chimeric
Take B2: the EC50 was 0.0587 µg/mL in test [1], 0.113 µg/mL in test [2], 0.0815 µg/mL in test [5] and 0.0456 µg/mL in test [6]. Moreover, the IC50 in test [3] was 0.0521 µg/mL; in test [4] it was 0.856 µg/mL; in test [7], 0.878 µg/mL.

In general, EC50 refers to the midpoint of the concentration-response curve. Low values mean higher potency in that assay, high ones lower potency in that assay. As a reminder, the IC50 is the point on the concentration scale where inhibition reaches its midpoint. A high value points to lower potency.
